Test results from the supplement of paper PMC10126150.
± gives the standard deviation of the averaged measurements.

Tested on: ATP
Assay: switch fluorescence ratio, 500 uM ATP over buffer (Cy3 cluster intensity, sum of 5 cycles each) (fold (ratio)); higher = stronger signal-on switching upon ATP binding; sequences stand for … in TCGTCGGCAGCGTCAGATGTGTATAAGAGACAGTTTTTTTTTTTTTTTTTTTTTTTTT…TC
Conditions: aptamer strand: ATP DNA aptamer (quencher-CACCTGGGGGAGTATTGCGGAGGAAGG + anchor), 100 nM annealed; ATP concentration: 500 uM
Summary of the method: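 Imaging in selection buffer was followed by imaging after 15 min with 500 uM ATP at 22 °C, for Cy3-labelled switching-strand clusters annealed to 100 nM quencher-labelled ATP aptamer on a modified Illumina MiSeq flow-cell. Five of these buffer/ATP cycles ran, separated by NaOH stripping and re-annealing. The fluorescence ratio per cluster is summed target-cycle over summed buffer-cycle Cy3 intensity, averaged per switch-domain sequence; clusters outside 100-1000 RFU were removed.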
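Further: ATP exposure 15 min at 22 °C before imaging.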

TTGCGGGGGG was tested, and the switch fluorescence ratio was 1.03 ± 0.032.

TTTCGTCCAA showed a switch fluorescence ratio of 1.04 ± 0.026.

Work on TTGAACTTGT yielded a switch fluorescence ratio of 1.03 ± 0.028.

Work on GGAACCGGGT yielded a switch fluorescence ratio of 1.029 ± 0.0086.

Sequence CGTTGGTTTT has a switch fluorescence ratio of 1.04 ± 0.02.

With TGTAAGGAAA the switch fluorescence ratio was 1.03 ± 0.013.

Sequence CCCAGTGGGA has a switch fluorescence ratio of 2.25 ± 1.7.

Sequence TTAAGCGGCC has a switch fluorescence ratio of 1.067 ± 0.0072.

For ACGCTGTTGG, the switch fluorescence ratio was 1.01 ± 0.035.

CTGGAATGTG gave a switch fluorescence ratio of 1.003 ± 0.01.

In the case of TAGCAGACGG, the switch fluorescence ratio is reported as 1.03 ± 0.015.

CAAGTTATAA was tested, and the switch fluorescence ratio was 0.994 ± 0.023.

TCTGGTTTGT gave a switch fluorescence ratio of 1.04 ± 0.049.

Work on AGGTAGAGTG yielded a switch fluorescence ratio of 0.948 ± 0.038.

Work on GTTCTTTTTC yielded a switch fluorescence ratio of 0.978 ± 0.019.

AAAGATATC gave a switch fluorescence ratio of 0.984 ± 0.02.

With GATCGGGCCG the switch fluorescence ratio was 0.975 ± 0.052.

GGGAACAGCA gave a switch fluorescence ratio of 1.027 ± 0.0047.

Work on CAGCTGGGGA yielded a switch fluorescence ratio of 1.01 ± 0.055.

TACGGGGGTG gave a switch fluorescence ratio of 1.01 ± 0.042.

For AAGTCGTCGA, the switch fluorescence ratio was 1.028 ± 0.0025.

With ATGTGGCCAC the switch fluorescence ratio was 1.06 ± 0.053.

Sequence AGTGCGGACA has a switch fluorescence ratio of 1 ± 0.051.

For TAAAATTTAG, the switch fluorescence ratio was 1 ± 0.04.

GTACTAAATT was tested, and the switch fluorescence ratio was 1 ± 0.023.

For TCGTAAGAAA, the switch fluorescence ratio was 1.01 ± 0.043.

In the case of ACTCGTTGTT, the switch fluorescence ratio is reported as 1.02 ± 0.024.

With GGGAGTGGGG the switch fluorescence ratio was 0.989 ± 0.025.

With TAACGTTTTT the switch fluorescence ratio was 1.1 ± 0.024.

GAATTTTAGG gave a switch fluorescence ratio of 0.9889 ± 0.0096.

For TTGGAAGTTC, the switch fluorescence ratio was 1 ± 0.019.

TCGTACGTTT gave a switch fluorescence ratio of 1.04 ± 0.021.

CCTCGCTGAG was tested, and the switch fluorescence ratio was 3.48 ± 0.98.

TAGGAGAAGT showed a switch fluorescence ratio of 0.991 ± 0.042.

Work on ACTAGGGGAC yielded a switch fluorescence ratio of 1.06 ± 0.085.

AGCCCTCGTT gave a switch fluorescence ratio of 1 ± 0.043.

For TTGAAATATT, the switch fluorescence ratio was 1.02 ± 0.013.

Work on TTCGGGGAAC yielded a switch fluorescence ratio of 1.06 ± 0.11.

AGCTGTCTCA was tested, and the switch fluorescence ratio was 0.991 ± 0.017.

In the case of GGAATCTAGT, the switch fluorescence ratio is reported as 0.999 ± 0.018.

AAAGAGTGAA gave a switch fluorescence ratio of 0.9989 ± 0.009.

TGCAAGGCGC was tested, and the switch fluorescence ratio was 1.23 ± 0.24.

TGATGGCCGG gave a switch fluorescence ratio of 1.05 ± 0.04.

Sequence AGGGGCCCGC has a switch fluorescence ratio of 0.98 ± 0.018.

Work on TAATGGAGGC yielded a switch fluorescence ratio of 1.05 ± 0.13.

GGCCATCTGG showed a switch fluorescence ratio of 1.04 ± 0.026.

CGAGGGGAAC gave a switch fluorescence ratio of 2.81 ± 2.5.

CCCGTGGAAA showed a switch fluorescence ratio of 1.09 ± 0.1.

AAGGCAGGTT gave a switch fluorescence ratio of 1.021 ± 0.0068.

In the case of TTGGGTTCCT, the switch fluorescence ratio is reported as 1.04 ± 0.11.

With GATACCATGG the switch fluorescence ratio was 0.985 ± 0.03.

For CTTTTAGAGA, the switch fluorescence ratio was 1.02 ± 0.015.

TGCTCTGCGT gave a switch fluorescence ratio of 1.17 ± 0.012.

For ACGTCTTAGT, the switch fluorescence ratio was 1 ± 0.021.

With CGGGGTCGCC the switch fluorescence ratio was 0.984 ± 0.021.

ATGATTTTTT was tested, and the switch fluorescence ratio was 0.985 ± 0.012.

With GTGTTAACTG the switch fluorescence ratio was 0.984 ± 0.028.

For TATAGGATTT, the switch fluorescence ratio was 1 ± 0.08.

TGAGCGGGAG was tested, and the switch fluorescence ratio was 1.0564 ± 0.00029.

For AGCTGAGGGG, the switch fluorescence ratio was 1.01 ± 0.012.

Sequence ATGGGTGAAA has a switch fluorescence ratio of 0.9867 ± 0.0084.

CTTTTTTTTT gave a switch fluorescence ratio of 1.02 ± 0.063.

In the case of TGGGGAGGTT, the switch fluorescence ratio is reported as 0.97 ± 0.044.

TAGGCTGGGC was tested, and the switch fluorescence ratio was 0.9673 ± 0.0041.

Sequence GCGTGAGGTG has a switch fluorescence ratio of 1.01 ± 0.048.

GGTTGGCCCC gave a switch fluorescence ratio of 1.02 ± 0.019.

Work on GGCGTAAATG yielded a switch fluorescence ratio of 1.02 ± 0.0066.

For GATGGCATCG, the switch fluorescence ratio was 1.02 ± 0.014.

CTCTTAGTTT showed a switch fluorescence ratio of 0.999 ± 0.023.

GTTTTTTGCC gave a switch fluorescence ratio of 1 ± 0.034.

In the case of GGCCGAGCTC, the switch fluorescence ratio is reported as 1.012 ± 0.0085.

For CATTATAGCG, the switch fluorescence ratio was 0.991 ± 0.023.

TTTTAACCGG was tested, and the switch fluorescence ratio was 0.974 ± 0.025.

In the case of TTTGGAGCAG, the switch fluorescence ratio is reported as 1.14 ± 0.13.

For TATTAATAA, the switch fluorescence ratio was 1 ± 0.0029.

Sequence AGCACTTTAT has a switch fluorescence ratio of 1.05 ± 0.073.

ACAAGGATTC was tested, and the switch fluorescence ratio was 0.995 ± 0.025.

GGGGGAATCC gave a switch fluorescence ratio of 1.06 ± 0.08.

Work on AAAGGATAGC yielded a switch fluorescence ratio of 1.017 ± 0.0044.

TGAATCCATT gave a switch fluorescence ratio of 1 ± 0.036.

ACCCTGGGGT was tested, and the switch fluorescence ratio was 2.14 ± 1.6.

GCGATCAATC was tested, and the switch fluorescence ratio was 1.71 ± 0.029.

Work on AACGCGTGGT yielded a switch fluorescence ratio of 1.01 ± 0.02.

GGCAGTGCGG was tested, and the switch fluorescence ratio was 1 ± 0.06.

ACTAATAAGG was tested, and the switch fluorescence ratio was 1.04 ± 0.029.

In the case of AAAGAGAATA, the switch fluorescence ratio is reported as 0.987 ± 0.036.

CTCCGGCGGG was tested, and the switch fluorescence ratio was 1.18 ± 0.057.

Sequence GACTTGGGCG has a switch fluorescence ratio of 0.957 ± 0.084.

Sequence ACGGATCCTT has a switch fluorescence ratio of 1.026 ± 0.0059.

CCATTGACGG showed a switch fluorescence ratio of 1.04 ± 0.02.

TAAAGGGGGA showed a switch fluorescence ratio of 0.983 ± 0.039.

With TTCTCTTGTT the switch fluorescence ratio was 1 ± 0.037.

With GGATTGTATT the switch fluorescence ratio was 1.02 ± 0.0055.

CTAGATCGAT showed a switch fluorescence ratio of 0.992 ± 0.022.

Sequence AATTGGGGTC has a switch fluorescence ratio of 0.967 ± 0.031.

For TATATGGGGG, the switch fluorescence ratio was 0.981 ± 0.026.

With GCTCTCGGTG the switch fluorescence ratio was 1.01 ± 0.017.

GCTTAGTGTC gave a switch fluorescence ratio of 0.975 ± 0.043.

For TTGTGAGTAG, the switch fluorescence ratio was 1 ± 0.028.

Work on GGGGTCGGTA yielded a switch fluorescence ratio of 0.9893 ± 0.0032.

With AATATAGGAA the switch fluorescence ratio was 1.016 ± 0.0092.

For GCTTATGTAC, the switch fluorescence ratio was 1.16 ± 0.019.

TGAATATGCG showed a switch fluorescence ratio of 0.988 ± 0.0096.

With TTGGTGAATT the switch fluorescence ratio was 0.99 ± 0.019.

TTATAAAAGG was tested, and the switch fluorescence ratio was 1.031 ± 0.0021.

For AGAAGGCAAC, the switch fluorescence ratio was 1.015 ± 0.0017.

GTTGTAGTCG showed a switch fluorescence ratio of 1.02 ± 0.038.

In the case of GGGAAGTGAG, the switch fluorescence ratio is reported as 1.013 ± 0.006.

For TTGTTCAAAA, the switch fluorescence ratio was 1.03 ± 0.025.

For TTGGGTATGG, the switch fluorescence ratio was 0.997 ± 0.018.

In the case of CTATTACGTC, the switch fluorescence ratio is reported as 0.984 ± 0.045.

GTTTGTACGA gave a switch fluorescence ratio of 0.97621 ± 0.0002.

GAGTATAAGC showed a switch fluorescence ratio of 0.9844 ± 0.0069.

ACTTTTTGGG gave a switch fluorescence ratio of 1.01 ± 0.065.

With GCAAGTGCAC the switch fluorescence ratio was 0.978 ± 0.04.

CTAACGGACT was tested, and the switch fluorescence ratio was 1.16 ± 0.068.

AACATAGGTG was tested, and the switch fluorescence ratio was 1.14 ± 0.056.

ATCAAGGATG gave a switch fluorescence ratio of 1.03 ± 0.038.

Sequence AGTAGAAGAT has a switch fluorescence ratio of 0.9552 ± 0.0071.

Sequence CAATGTTCGA has a switch fluorescence ratio of 0.981 ± 0.01.

With AAACGATATT the switch fluorescence ratio was 1.015 ± 0.0026.

TACAGCAGTG gave a switch fluorescence ratio of 1.02 ± 0.023.

ATGGGGTTAA showed a switch fluorescence ratio of 1.03 ± 0.022.

Work on CCATAAACTA yielded a switch fluorescence ratio of 1.01 ± 0.066.

In the case of CTTATAGCTT, the switch fluorescence ratio is reported as 0.987 ± 0.033.

In the case of CGGGGTTTTG, the switch fluorescence ratio is reported as 1.014 ± 0.0068.

CGGGGTAAGT showed a switch fluorescence ratio of 1.01 ± 0.021.

Work on TCTGAAAGTG yielded a switch fluorescence ratio of 0.989 ± 0.059.

GTTATATTG showed a switch fluorescence ratio of 1.01 ± 0.031.

GTCGCTTGTC showed a switch fluorescence ratio of 0.995 ± 0.023.

ATGGATAGTC gave a switch fluorescence ratio of 0.986 ± 0.044.

Work on TGACTAGTTT yielded a switch fluorescence ratio of 1.005 ± 0.0059.

AGTTGGGTCA showed a switch fluorescence ratio of 0.993 ± 0.044.

GGTGCGCCTT showed a switch fluorescence ratio of 0.958 ± 0.013.

Work on TTTGAAGCAT yielded a switch fluorescence ratio of 1 ± 0.061.

CCGGGCGGGG showed a switch fluorescence ratio of 1.07 ± 0.018.

With GAGTTATGGG the switch fluorescence ratio was 0.9963 ± 0.0048.

CTCAGTAGGG gave a switch fluorescence ratio of 0.975 ± 0.024.

TTTTCGTCAA gave a switch fluorescence ratio of 2.86 ± 2.4.

With TATGAGGATT the switch fluorescence ratio was 0.9749 ± 0.0023.

CGATGTCTCT showed a switch fluorescence ratio of 0.973 ± 0.047.

Work on CGTTTGAACT yielded a switch fluorescence ratio of 1.025 ± 0.0094.

Sequence GTTTTGGTAT has a switch fluorescence ratio of 1.01 ± 0.0052.

CGAGAAGGTG gave a switch fluorescence ratio of 1.24 ± 0.33.

TTGTGAATGT gave a switch fluorescence ratio of 0.975 ± 0.016.

Work on ATGTTTCTGG yielded a switch fluorescence ratio of 0.965 ± 0.011.

GCTGGTTTGT gave a switch fluorescence ratio of 0.989 ± 0.013.

Sequence GTGGGGGGTG has a switch fluorescence ratio of 1.02 ± 0.057.

With ATCAGAGTGC the switch fluorescence ratio was 1.03 ± 0.06.

In the case of CGTAGGAAGA, the switch fluorescence ratio is reported as 1.02 ± 0.048.

CCGAACTTTT showed a switch fluorescence ratio of 1.07 ± 0.075.

In the case of ACGATGGCTG, the switch fluorescence ratio is reported as 1.04 ± 0.015.

For ATAGTCATAT, the switch fluorescence ratio was 0.9978 ± 0.0017.

For CATTCATGTT, the switch fluorescence ratio was 0.985 ± 0.024.

TTCAGGCCGT showed a switch fluorescence ratio of 1.02 ± 0.056.

TACAGAATGA showed a switch fluorescence ratio of 1.003 ± 0.0041.

TGGGCATATA gave a switch fluorescence ratio of 0.996 ± 0.012.
